In publication PMC10470788:

Assays:
[1] = molecular target: BxpB (recombinant, 167 residues, His6 tag removed with Factor Xa) (Bacillus anthracis (Sterne strain)) (UniProt S5W424); assay: SEC-MALS
[2] = molecular target: BxpB (recombinant, 167 residues, His6 tag removed with Factor Xa) (Bacillus anthracis (Sterne strain)) (UniProt S5W424); assay: crystal structure

Q: How did the stoichiometry N [1] turn out when “BxpB (recombinant, 167 residues, His6 tag removed with Factor Xa) (from UniProt S5W424 1-167) (natural protein)” was run?
A: The stoichiometry N was 3.

Q: And the stoichiometry N [2]?
A: Its stoichiometry N is 3.
